The chains are these.
B1: M27-G04 (Fab, V domains shown)
VH: EVQLLESGGGLVQPGGSLRLSCAASGFTFSAYYMVWVRQAPGKGLEWVSYISPSGGQTQYADSVKGRFTISRDNSKNTLYLQMNSLRAEDTAVYYCAREAISSSSFDYWGQGTLVTVSS
VL: DIQMTQSPSSLSASVGDRVTITCRASQRISYYLTWYQQKPGKVPKLLIYAASSLESGVPSRFSGSGSGTDFTLTISNLQPEDFATYYCQQAFSTPFTFGGGTKVEIK
notes: Fab fragment (E. coli TG1); printed HC runs into the start of CH1
B2: M27-H10 (Fab, V domains shown)
VH: EVQLLESGGGLVQPGGSLRLSCAASGFTFSAYQMAWVRQAPGKGLEWVSVIYSSGGYTDYADSVKGRFTISRDNSKNTLYLQMNSLRAEDTAVYYCARHNWNDGAFDIWGQGTMVTVSS
VL: DIQMTQSPSSLSASVGDRVTITCRASQSISNYLNWYQQKPGKAPKFLIYAASSLQSGVPSRFSGSGSGTDFTLSISSLQPEDFATYYCQQSYSTPQTFGQGTKVEMK
notes: as for B1
B3: M28-E01 (Fab, V domains shown)
VH: EVQLLESGGGLVQPGGSLRLSCAASGFTFSSYPMGWVRQAPGKGLEWVSRISSSGGMTIYADSVKGRFTISRDNSKNTLYLQMNSLRAEDTAVYYCARDDWNVGMDVWGQGTTVTVSS
VL: B2 VL with N31S, F46L, R61K, F71Y, S74T, S91T, S93T, Q96W, M106I
notes: as for B1
B4: M27-E03 (Fab, V domains shown)
VH: EVQLLESGGGLVQPGGSLRLSCAASGFTFSSYMMHWVRQAPGKGLEWVSGIYPSGGWTDYADSVKGRFTISRDNSKNTLYLQMNSLRAEDTATYYCARLVAGLDAFDIWGQGTMVTVSS
VL: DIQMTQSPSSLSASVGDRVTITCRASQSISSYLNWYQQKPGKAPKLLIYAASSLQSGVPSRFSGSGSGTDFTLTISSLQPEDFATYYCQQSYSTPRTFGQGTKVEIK
notes: as for B1
B5: M28-D02 (Fab, V domains shown)
VH: EVQLLESGGGLVQPGGSLRLSCAASGFTFSWYPMQWVRQAPGKGLEWVSYIYPSGGGTDYADSVKGRFTISRDNSKNTLYLQMNSLRAEDTATYYCATSSGWLGDAFDIWGQGTMVTVSS
VL: DIQMTQSPSSLSASEGDMVTITCRTSRRIGTYLNWYQQKPGKAPKLLIYGASSLQSGVPSRFSGSGSGTDFTLTVSSLQPEDVGTYYCQQSFSSPWTFGPGTKVEIK
notes: Fab fragment (E. coli TG1); printed HC runs into the start of CH1; The LC is printed with an amber codon 'q' (QDIqMTQ), written here as Q
B6: M27-F04 (Fab, V domains shown)
VH: EVQLLESGGGLVQPGGSLRLSCAASGFTFSWYPMTWVRQAPGKGLEWVSSIGPSGGQTIYADSVKGRFTISRDNSKNTLYLQMNSLRAEDTAVYYCTTEYGDYGGGFDPWGQGTLVTVSS
VL: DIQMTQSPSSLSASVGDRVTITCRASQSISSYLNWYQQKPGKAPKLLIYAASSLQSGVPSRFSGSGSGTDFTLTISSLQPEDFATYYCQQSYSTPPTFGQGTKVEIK
notes: as for B1
B7: M28-A01 (Fab, V domains shown)
VH: EVQLLESGGGLVQPGGSLRLSCAASGFTFSWYAMHWVRQAPGKGLEWVSGIYSSGGYTKYADSVKGRFTISRDNSKNTLYLQMNSLRAEDTAVYYCARDLSNGDDVFDIWGQGTMVTVSS
VL: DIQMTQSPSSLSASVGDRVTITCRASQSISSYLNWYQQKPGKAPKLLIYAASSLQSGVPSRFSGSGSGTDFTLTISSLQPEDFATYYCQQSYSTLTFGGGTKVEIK
notes: as for B1
B8: M29-C07 (Fab, V domains shown)
VH: EVQLLESGGGLVQPGGSLRLSCAASGFTFSGYDMMWVRQAPGKGLEWVSVISSSGGNTAYADSVKGRFTISRDNSKNTLYLQMNSLRAEDTAVYYCARESSGLYYFDYWGQGTLVTVSS
VL: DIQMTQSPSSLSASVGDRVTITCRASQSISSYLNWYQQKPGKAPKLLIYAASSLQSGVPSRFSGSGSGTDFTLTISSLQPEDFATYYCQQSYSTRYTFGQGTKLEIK
notes: as for B1
B9: M28-F07 (Fab, V domains shown)
VH: EVQLLESGGGLVQPGGSLRLSCAASGFTFSDYTMYWVRQAPGKGLEWVSSIVPSGGHTLYADSVKGRFTISRDNSKNTLYLQMNSLRAEDTAVYYCAKDHLSSWYGGFFDYWGQGTLVTVSS
VL: DIQMTQSPSSVSASVGDRVTITCRASQGISSWLAWYQQKPGKAPKLLIYATSGLQSGVPSRFSGSGSGTDFTLTISSLQPEDFATYYCQQAKSFPLTFGGGTRVEIK
notes: as for B1
B10: M27-F11 (Fab, V domains shown)
VH: EVQLLESGGGLVQPGGSLRLSCAASGFTFSSYHMMWVRQAPGKGLEWVSSIYPSGGATMYADSVKGRFTISRDNSKNTLYLQMNSLRAEDTAMYYCARDGYHYGDYTYFQHWGQGTLVTVSS
VL: DIQMTQSPSFLSASVGDRVTITCRASQGISSYLAWYQQKPGKAPKLLIYAASSLQSGVPSRFSGSGSGTDFTLTISSLQPEDFATYYCQQSYNTLRTFGPGTKVDLK
notes: as for B1
B11: M28-E11 (Fab, V domains shown)
VH: EVQLLESGGGLVQPGGSLRLSCAASGFTFSLYDMTWVRQAPGKGLEWVSGISSSGGVTIYADSVKGRFTISRDNSKNTLYLQMNSLRAEDTAVYYCARTYYYDSSGYADAFDIWGQGTMVTVSS
VL: DIQMTQSPSSVSASVGDRVTINCRASQDISNWLAWYQQKPGKAPNLLIYAASSLQTGAPSRFSGSGSGTDFTLTISSLQPEDFGTYVCQQSYSLPWTFGLGTKVEVR
notes: as for B1
B12: M27-B12 (Fab, V domains shown)
VH: EVQLLESGGGLVQPGGSLRLSCAASGFTFSWYQMMWVRQAPGKGLEWVSSISPSGGITEYADSVKGRFTISRDNSKNTLYLQMNSLRAEDTAVYYCARDRSSGWYYYGMDVWGQGTTVTVSS
VL: QYELTQPPAVSVSPGQTATITCSGDKLGDEYAAWYQQKPGQSPVLVIYQDRKRPSGIPERFSGSNFGNTATLTITGTQVMDEADYYCQAWGKRNVVFGGGTKLTVL
notes: as for B1
B13: M27-B01 (Fab, V domains shown)
VH: EVQLLESGGGLVQPGGSLRLSCAASGFTFSDYTMWWVRQAPGKGLEWVSSISSSGGITFYADSVKGRFTISRDNSKNTLYLQMNSLRAEDTAVYYCARSADTAMGGAFDIWGQGTMVTVSS
VL: not shown
notes: as for B1
B14: M28-D12 (Fab, V domains shown)
VH: EVQLLESGGGLVQPGGSLRLSCAASGFTFSWYTMHWVRQAPGKGLEWVSVIYPSGGPTSYADSVKGRFTISRDNSKNTLYLQMNSLRAEDTATYYCARDGSGSYLGFDYWGQGTLVTVSS
VL: DIQMTQSPSSLSASVGDRVTITCRASQSIATYLNWYQQKPGRAPKLLIYAASSLQSGVPSRFVGGGSGSGTHFTLTISSLQPEDFATYYCQQSYSTRETFGQGTKVEIK
notes: as for B1
B15: M27-G09 (Fab, V domains shown)
VH: EVQLLESGGGLVQPGGSLRLSCAASGFTFSEYDMAWVRQAPGKGLEWVSYIVSSGGFTSYADSVKGRFTISRDNSKNTLYLQMNSLRAEDTAVYYCTTWAGWIAAADYWGQGTLVTVSS
VL: DIQMTQSPSSVSASVGDRITITCRTRQSISNYLNWYQQKPGEPPKLLIFAASSLQSGVPSRFSGSGTGTEFTLTISSLQPEDLAIYYCQQSYDIPFTFGQGTKLEIK
notes: as for B1
B16: M27-G01 (Fab, V domains shown)
VH: EVQLLESGGGLVQPGGSLRLSCAASGFTFSLYRMFWVRQAPGKGLEWVSSIWSSGGPTMYADSVKGRFTISRDNSKNTLYLQMNSLRAEDTAVYYCAREYPSTYYFDYWGQGTLVTVSS
VL: DIQMTQSPSSLSASVGDRVTITCRASQSISTYLNWYQQKPGKAPKLLIYGASSLQSGVPSRFSGSGSGTDFTLTISSLQPEDFTIYYCQQSYSDPYTFGQGTKLDIK
notes: as for B1
B17: M28-C03 (Fab, V domains shown)
VH: EVQLLESGGGLVQPGGSLRLSCAASGFTFSYYQMGWVRQAPGKGLEWVSSIYPSGGMTDYADSVKGRFTISRDNSKNTLYLQMNSLRAEDTAVYYCTRGSPWGDDAFDIWGQGTMVTVSS
VL: DIQMTQSPSSLSASVGDRVTITCRASQSINFYLNWYQQKPGKAPKLLIYVASSLESGVPSRFSGSASGTEFTLTISSLQPEDFATYYCLQSYSAPYTFGQGTKVEIT
notes: as for B1

Positions count from the first letter of the chain named.

In the experiment the target is T1, human plasma kallikrein (human, UniProt P03952 20-390; P03952 391-638).
T1 construct: two disulfide-linked chains; also called pKal; human pKal
T1 sequence (P03952 20-390, chain 1 of 2): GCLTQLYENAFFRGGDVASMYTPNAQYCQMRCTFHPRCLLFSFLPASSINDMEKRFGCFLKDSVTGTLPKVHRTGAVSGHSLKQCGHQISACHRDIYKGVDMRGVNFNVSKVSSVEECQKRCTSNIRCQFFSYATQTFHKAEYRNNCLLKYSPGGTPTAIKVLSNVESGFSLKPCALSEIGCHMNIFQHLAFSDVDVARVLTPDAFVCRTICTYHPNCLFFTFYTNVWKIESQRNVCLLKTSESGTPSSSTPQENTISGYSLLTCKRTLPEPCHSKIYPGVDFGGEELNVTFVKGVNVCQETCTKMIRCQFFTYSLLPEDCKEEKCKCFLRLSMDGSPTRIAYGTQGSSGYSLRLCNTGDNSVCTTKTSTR
T1 sequence (P03952 391-638, chain 2 of 2): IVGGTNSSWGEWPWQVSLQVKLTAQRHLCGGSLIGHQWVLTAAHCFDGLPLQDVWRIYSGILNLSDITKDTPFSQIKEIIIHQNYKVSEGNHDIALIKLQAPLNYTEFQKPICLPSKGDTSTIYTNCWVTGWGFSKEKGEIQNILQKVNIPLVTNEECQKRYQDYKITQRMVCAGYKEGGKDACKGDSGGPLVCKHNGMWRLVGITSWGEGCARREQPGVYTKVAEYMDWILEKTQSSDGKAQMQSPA
Description: ELISA; signal on coated biotinylated human plasma kallikrein divided by signal on streptavidin; Fab. An excerpt:
Abbreviations used: "T/B" is the ELISA signal obtained using of the target (biotinylated plasma kallikrein) divided by the ELISA signal of the "background" (streptavidin); both of which were coated on microtiter plates. "nd" is not determined. The symbol "q" refers to the amber suppressible stop codon (TAG), which is translated as glutamine (Q) in strains of E. coli such as the TG1 cells that were used to express the Fab fragments.
Consider B1, for which the “Human pKal ELISA (T/B)” value was 4.1 T/B (target signal / background signal).
Consider B2, for which the “Human pKal ELISA (T/B)” value was 12.4 T/B (target signal / background signal).
Take B3: the “Human pKal ELISA (T/B)” value is 41 T/B (target signal / background signal).
For the molecule B4, the “Human pKal ELISA (T/B)” value is 35.9 T/B (target signal / background signal).
With B5, the “Human pKal ELISA (T/B)” value was 3.7 T/B (target signal / background signal).
As to B6, the “Human pKal ELISA (T/B)” value is 10.5 T/B (target signal / background signal).
On to B7, for which the “Human pKal ELISA (T/B)” value was 19 T/B (target signal / background signal).
Turning to B8, the “Human pKal ELISA (T/B)” value is 5.2 T/B (target signal / background signal).
In the case of B9, the “Human pKal ELISA (T/B)” value was 33 T/B (target signal / background signal).
Take B10: the “Human pKal ELISA (T/B)” value was 10 T/B (target signal / background signal).
With B11, the “Human pKal ELISA (T/B)” value is 29.3 T/B (target signal / background signal).
On to B12, for which the “Human pKal ELISA (T/B)” value is 2.3 T/B (target signal / background signal).
As to B13, the “Human pKal ELISA (T/B)” value was 33.1 T/B (target signal / background signal).
The value for B14 was 41.6 T/B (target signal / background signal); that for B15 was 2.2 T/B (target signal / background signal).
For B16, the “Human pKal ELISA (T/B)” value is 31.4 T/B (target signal / background signal).
Turning to B17, the “Human pKal ELISA (T/B)” value is 2.2 T/B (target signal / background signal).

Source of the values: patent US9266964.
